Results as given in the supplement of paper PMC6757056.
± gives the standard deviation of the averaged measurements.

B1: library; a variant is named by its letters at N, in order (parent)
chain: GCUGUCACCGAGAAACUGUGAAGUAUAUCUUAAACCUGGGCACUUAAAAGAUAUAUGGAGUUAGUAGUGCAACCUGCUCGGUCUGAUGAGUCCNNNNNNGGACGAAACAGC

Tests used:
cyclic di-GMP [1] = variants of: B1; assay: FACS-Seq fitted mean relative fluorescence mCherry/BFP without ligand (log10 relative fluorescence); HEK293T; ligand: cyclic di-GMP (c-di-GMP-II aptamer); higher = higher reporter protein expression; details: ligand present: no
Method in brief: (§1)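 Fluorescence is reported as a normalized fitted mean of sorted-bin read counts. Lentivirally transduced HEK293T libraries (mCherry ribozyme-switch reporter, EF1α-BFP marker) were enriched, treated with or without ligand for 48 h, and sorted into 6 mCherry/BFP bins for MiSeq sequencing of PCR-amplified genomic DNA. The normal fit was on log10(mCherry/BFP), scaled to five spiked-in control ribozymes.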

cyclic di-GMP [2] = variants of: B1; assay: normalized RNA/DNA level without ligand (relative to sTRSVctl = 100) (log10 (% of sTRSVctl)); HEK293T; ligand: cyclic di-GMP (c-di-GMP-II aptamer); higher = less ribozyme self-cleavage, higher mRNA level; details: reporter: mCherry (pCS4076), ligand present: no
Description: (§2)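 Hammerhead (sTRSV) ribozyme switch libraries with a ligand aptamer grafted on stem I and a randomized N4-6 loop II, cloned into the 3' UTR of mCherry and transiently transfected into HEK293T cells; RNA-Seq 72 h post transfection with ligand added 1 h before transfection; RNA read count / plasmid DNA read count normalized to the non-cleaving sTRSVctl (x100), log10; sequences with >100 DNA reads. FACS-Seq: lentiviral library sorted into 6 bins after 48 h ligand, log-normal fit mean of mCherry/BFP scaled to controls. Printed sequences are partial switch sequences.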

cyclic di-GMP [3] = variants of: B1; assay: FACS-Seq fitted mean relative fluorescence mCherry/BFP with ligand (log10 relative fluorescence); HEK293T; ligand: cyclic di-GMP (c-di-GMP-II aptamer); ligand concentration (+) FACS-Seq: 1 mM; higher = higher reporter protein expression; details: ligand present: yes
Method in brief: as §1

cyclic di-GMP [4] = variants of: B1; assay: normalized RNA/DNA level with ligand (relative to sTRSVctl = 100) (log10 (% of sTRSVctl)); HEK293T; ligand: cyclic di-GMP (c-di-GMP-II aptamer); ligand concentration (+) RNA-Seq: 1 mM; higher = less ribozyme self-cleavage, higher mRNA level; details: reporter: mCherry (pCS4076), ligand present: yes
Description: as §2

Variant	FACS-Seq fitted mean (log10) (cyclic di-GMP [1])	normalized RNA/DNA level without ligand (log10) (cyclic di-GMP [2])	FACS-Seq fitted mean (log10) (cyclic di-GMP [3])	normalized RNA/DNA level with ligand (log10) (cyclic di-GMP [4])
AAGGUA	-0.681 ± 0.028	1.4 ± 0.091	-0.372 ± 0.038	1.57 ± 0.13
AAGGUU	-0.341 ± 0.089	1.59 ± 0.022	-0.152 ± 0.091	1.8 ± 0.1
AAGGUG	-0.189 ± 0.0061	1.51 ± 0.072	0.04 ± 0.083	1.69 ± 0.11
AAGAAC	-1.03 ± 0.025	1.55 ± 0.029	-0.842 ± 0.066	1.73 ± 0.1
AAGAAA	-0.319 ± 0.062	1.38 ± 0.11	-0.0342 ± 0.062	1.56 ± 0.035
AAGAAU	-0.565 ± 0.046	1.54 ± 0.062	-0.225 ± 0.05	1.74 ± 0.073
AAGCGA	-0.459 ± 0.0051	1.44 ± 0.1	-0.202 ± 0.029	1.65 ± 0.13
CAGUAU	-0.4929 ± 0.0046	1.4 ± 0.1	-0.197 ± 0.0062	1.58 ± 0.17
CAGUAA	-0.526 ± 0.094	1.14 ± 0.14	-0.22 ± 0.0072	1.33 ± 0.073
GAGUUG	-0.0245 ± 0.095	1.8 ± 0.04	0.211 ± 0.021	1.92 ± 0.12
GAGUUA	-0.199 ± 0.084	1.74 ± 0.033	-0.129 ± 0.019	1.82 ± 0.14
AAGCCU	0.14 ± 0.18	1.705 ± 0.014	0.3704 ± 0.0037	1.84 ± 0.11
AAGCCA	-0.228 ± 0.096	1.63 ± 0.029	-0.278 ± 0.12	1.79 ± 0.16
AAGACG	-0.185 ± 0.037	1.54 ± 0.084	0.133 ± 0.15	1.73 ± 0.097
AAGACA	-0.415 ± 0.14	1.55 ± 0.044	-0.0423 ± 0.083	1.74 ± 0.1
GAGAUU	-0.388 ± 0.22	1.71 ± 0.035	-0.0338 ± 0.038	1.82 ± 0.1
GAGUAG	-0.7206 ± 0.0025	1.84 ± 0.075	-0.563 ± 0.061	1.89 ± 0.12
GAGUAA	-0.0125 ± 0.15	1.71 ± 0.027	0.165 ± 0.029	1.81 ± 0.069
GAGACU	-0.22 ± 0.13	1.791 ± 0.013	-0.00318 ± 0.073	1.87 ± 0.12
UAGUAU	-0.121 ± 0.12	1.61 ± 0.028	0.192 ± 0.1	1.78 ± 0.064
UACUUU	-0.1 ± 0.037	1.68 ± 0.019	0.192 ± 0.048	1.84 ± 0.13
GAGCUG	0.303 ± 0.085	1.82 ± 0.078	0.439 ± 0.013	1.89 ± 0.1
GAGCCU	-0.783 ± 0.038	1.79 ± 0.072	-0.638 ± 0.064	1.89 ± 0.12
CAUAAA	-0.673 ± 0.064	1.23 ± 0.14	-0.363 ± 0.021	1.42 ± 0.066

Variant	FACS-Seq fitted mean (log10) (cyclic di-GMP [1])	normalized RNA/DNA level without ligand (log10) (cyclic di-GMP [2])	FACS-Seq fitted mean (log10) (cyclic di-GMP [3])	normalized RNA/DNA level with ligand (log10) (cyclic di-GMP [4])
CAUAAU	-0.282 ± 0.056	1.46 ± 0.092	-0.0129 ± 0.014	1.63 ± 0.072
UAGGGA	-0.172 ± 0.12	1.53 ± 0.039	-0.000875 ± 0.13	1.68 ± 0.14
UAGGGU	-0.424 ± 0.015	1.61 ± 0.075	-0.0926 ± 0.068	1.78 ± 0.13
CAGGAA	-0.629 ± 0.038	1.4 ± 0.099	-0.392 ± 0.12	1.51 ± 0.051
UAGUUG	0.116 ± 0.21	1.7 ± 0.05	0.29 ± 0.039	1.81 ± 0.082
UAGUUU	-0.234 ± 0.073	1.675 ± 0.0087	0.0254 ± 0.084	1.85 ± 0.081
AAGUUA	-0.499 ± 0.08	1.529 ± 0.0062	-0.215 ± 0.06	1.74 ± 0.14
GAGAAG	-0.283 ± 0.064	1.71 ± 0.038	-0.00672 ± 0.064	1.79 ± 0.12
UAGAAA	-0.272 ± 0.026	1.58 ± 0.037	-0.0653 ± 0.024	1.75 ± 0.18
UAGAAU	-0.456 ± 0.092	1.56 ± 0.036	-0.193 ± 0.12	1.75 ± 0.13
AAGCAC	-0.391 ± 0.077	1.678 ± 0.0034	-0.0705 ± 0.025	1.82 ± 0.11
AAGCAA	-0.642 ± 0.0094	1.56 ± 0.039	-0.454 ± 0.097	1.72 ± 0.062
UAGACU	-0.164 ± 0.073	1.68 ± 0.051	0.141 ± 0.12	1.85 ± 0.13
GACUUU	-0.222 ± 0.11	1.723 ± 0.0052	0.162 ± 0.028	1.85 ± 0.083
GACUUG	-0.257 ± 0.031	1.63 ± 0.023	-0.0923 ± 0.026	1.79 ± 0.12
CAGCUU	-0.396 ± 0.075	1.62 ± 0.095	-0.151 ± 0.049	1.75 ± 0.091
CAGCUG	0.189 ± 0.018	1.767 ± 0.0057	0.403 ± 0.038	1.84 ± 0.12
CAGCUA	-0.432 ± 0.009	1.37 ± 0.077	-0.148 ± 0.079	1.56 ± 0.076
UAGGAA	-0.246 ± 0.044	1.49 ± 0.07	-0.00386 ± 0.085	1.68 ± 0.16
AAGGAA	-0.627 ± 0.048	1.35 ± 0.13	-0.409 ± 0.03	1.51 ± 0.069
AAGGGG	-0.499 ± 0.044	1.47 ± 0.087	-0.103 ± 0.12	1.63 ± 0.1
AAGGGA	-0.6377 ± 0.005	1.38 ± 0.072	-0.444 ± 0.023	1.5 ± 0.13
AAGGGU	-0.547 ± 0.0094	1.53 ± 0.091	-0.278 ± 0.052	1.7 ± 0.061
CAGCAA	-0.468 ± 0.048	1.36 ± 0.094	-0.2496 ± 0.00056	1.51 ± 0.061

Variant	FACS-Seq fitted mean (log10) (cyclic di-GMP [1])	normalized RNA/DNA level without ligand (log10) (cyclic di-GMP [2])	FACS-Seq fitted mean (log10) (cyclic di-GMP [3])	normalized RNA/DNA level with ligand (log10) (cyclic di-GMP [4])
GAGCGC	-0.228 ± 0.14	1.79 ± 0.049	-0.101 ± 0.16	1.83 ± 0.082
GAGCGU	-1.38 ± 0.089	1.814 ± 0.0041	-1.2 ± 0.013	1.9 ± 0.052
AAUAAA	-0.411 ± 0.041	1.47 ± 0.097	-0.166 ± 0.054	1.69 ± 0.069
CAGAAA	-0.664 ± 0.055	1.15 ± 0.12	-0.562 ± 0.02	1.28 ± 0.14
UAGAUG	0.0515 ± 0.09	1.53 ± 0.057	0.322 ± 0.085	1.75 ± 0.089
UAGGCU	-0.161 ± 0.14	1.75 ± 0.031	0.0436 ± 0.011	1.88 ± 0.11
GAGCAG	-0.832 ± 0.019	1.9 ± 0.058	-0.596 ± 0.16	1.95 ± 0.13
UAGUGG	-0.133 ± 0.082	1.71 ± 0.064	0.162 ± 0.086	1.84 ± 0.069
UAGUGA	-0.51 ± 0.069	1.626 ± 0.0075	-0.218 ± 0.016	1.77 ± 0.15
GAGAGA	-0.796 ± 0.023	1.61 ± 0.037	-0.733 ± 0.053	1.72 ± 0.086
CAGCCA	-0.196 ± 0.089	1.42 ± 0.05	0.0333 ± 0.08	1.67 ± 0.14
UAUAAA	-0.114 ± 0.051	1.66 ± 0.026	0.111 ± 0.097	1.79 ± 0.13
AAGAUA	-0.4038 ± 0.0036	1.42 ± 0.094	-0.0468 ± 0.065	1.63 ± 0.063
GAUAAU	-0.142 ± 0.21	1.59 ± 0.068	0.0798 ± 0.079	1.75 ± 0.075
GAUAAA	-0.481 ± 0.013	1.47 ± 0.065	-0.1618 ± 0.00059	1.63 ± 0.1
UAGUCC	0.148 ± 0.14	1.72 ± 0.1	0.203 ± 0.041	1.85 ± 0.086
AAGAGA	-0.637 ± 0.058	1.33 ± 0.078	-0.296 ± 0.066	1.54 ± 0.094
AAGAGG	-0.546 ± 0.022	1.53 ± 0.052	-0.313 ± 0.016	1.68 ± 0.15
CAGAUA	-0.713 ± 0.024	1.23 ± 0.053	-0.483 ± 0.0048	1.43 ± 0.065
CAGACU	-0.00398 ± 0.14	1.584 ± 0.0086	0.149 ± 0.04	1.72 ± 0.1
CAGACA	-0.617 ± 0.0047	1.33 ± 0.059	-0.36 ± 0.034	1.51 ± 0.13
CAGUUC	-0.4497 ± 0.0028	1.66 ± 0.038	-0.1164 ± 0.00072	1.82 ± 0.097
CAGUUU	-0.341 ± 0.0054	1.5 ± 0.0081	-0.0345 ± 0.033	1.67 ± 0.12
CAGUUA	-0.724 ± 0.01	1.28 ± 0.15	-0.4923 ± 0.0038	1.42 ± 0.041
